Experimental data taken from article PMC6745501, “Plant photoreceptors and their signaling components compete for COP1 binding via VP peptide motifs” (The EMBO Journal, 2019).
Changes are numbered by the printed parent chain.

T1: UVR8^ValPro/AlaAla (recombinant) (Arabidopsis, UniProt Q9FN03 1-440, ValPro/AlaAla)
T1 construct: UVR8, Arabidopsis, Val-Pro of the C-terminal VP motif mutated to Ala-Ala; compared with the wild type (full-length) protein, monomer ~50 kDa; also called the mutant photoreceptor; not shown: His10, N-terminal, cleaved; Twin-Strep, N-terminal, cleaved
T1 sequence (looked up): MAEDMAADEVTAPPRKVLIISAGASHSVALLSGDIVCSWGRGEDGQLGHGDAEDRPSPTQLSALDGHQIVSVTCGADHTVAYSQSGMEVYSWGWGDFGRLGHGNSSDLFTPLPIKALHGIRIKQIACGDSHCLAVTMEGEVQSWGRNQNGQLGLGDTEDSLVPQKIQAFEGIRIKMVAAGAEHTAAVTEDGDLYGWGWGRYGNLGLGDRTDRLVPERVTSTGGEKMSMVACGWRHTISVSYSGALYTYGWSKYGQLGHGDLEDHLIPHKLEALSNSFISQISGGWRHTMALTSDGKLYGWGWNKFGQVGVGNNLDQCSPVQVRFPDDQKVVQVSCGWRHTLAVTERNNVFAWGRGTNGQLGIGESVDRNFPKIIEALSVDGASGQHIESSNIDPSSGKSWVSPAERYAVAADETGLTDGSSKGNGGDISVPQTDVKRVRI

T2: UVR8^12–381 β‐propeller core (Arabidopsis, UniProt Q9FN03 12-381)
T2 construct: also called UVR8 β‐propeller core; UVR8 core domain; not shown: His10, N-terminal, cleaved; Twin-Strep, N-terminal, cleaved
T2 sequence (looked up): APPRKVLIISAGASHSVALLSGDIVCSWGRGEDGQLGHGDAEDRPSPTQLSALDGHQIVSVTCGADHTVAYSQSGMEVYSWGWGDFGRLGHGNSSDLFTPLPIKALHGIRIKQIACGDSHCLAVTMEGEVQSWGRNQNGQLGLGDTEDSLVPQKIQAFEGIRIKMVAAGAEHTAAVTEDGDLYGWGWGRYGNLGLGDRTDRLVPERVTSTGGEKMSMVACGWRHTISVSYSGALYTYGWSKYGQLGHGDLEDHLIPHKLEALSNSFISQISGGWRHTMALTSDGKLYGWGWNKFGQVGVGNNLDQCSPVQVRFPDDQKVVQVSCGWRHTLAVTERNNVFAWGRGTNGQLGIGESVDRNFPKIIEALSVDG

T3: full‐length UVR8 (recombinant) (Arabidopsis, UniProt Q9FN03 1-440)
T3 construct: UV … LOCUS 8 (UVR8) UV-B photoreceptor, Arabidopsis, full length; Dimer in the ground state; monomerized by 60 min UV-B on ice where the assay says so; not shown: His10, N-terminal, cleaved; Twin-Strep, N-terminal, cleaved
T3 sequence (looked up): T1 sequence (looked up) with A410V, A411P

T4: COP1^Tyr441Ala WD40 domain (Arabidopsis, UniProt P43254 349-675, Tyr441Ala)
T4 construct: COP1, Arabidopsis, WD40 domain (mutant of COP1 349-675), Tyr441Ala; not shown: His10, N-terminal, cleaved; Twin-Strep, N-terminal, cleaved
T4 sequence (looked up): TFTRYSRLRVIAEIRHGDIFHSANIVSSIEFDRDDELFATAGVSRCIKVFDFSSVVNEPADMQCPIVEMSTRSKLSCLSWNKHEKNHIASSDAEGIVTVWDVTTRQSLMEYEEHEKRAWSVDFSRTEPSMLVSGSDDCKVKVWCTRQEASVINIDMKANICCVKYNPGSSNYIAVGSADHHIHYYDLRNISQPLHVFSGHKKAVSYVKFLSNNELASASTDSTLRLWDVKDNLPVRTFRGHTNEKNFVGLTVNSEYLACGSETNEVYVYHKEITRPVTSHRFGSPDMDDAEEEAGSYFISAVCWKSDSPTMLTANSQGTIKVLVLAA

T5: COP1^349–675,Lys422Ala WD40 domain (Arabidopsis, UniProt P43254 349-675, Lys422Ala)
T5 construct: COP1, Arabidopsis, WD40 domain, residues 349-675, Lys422Ala; also called COP1^Lys422Ala; not shown: His10, N-terminal, cleaved; Twin-Strep, N-terminal, cleaved
T5 sequence (looked up): T4 sequence (looked up) with K74A, A93Y

B1: Arabidopsis COP1^349–675 WD40 domain (domain or fragment, UniProt P43254 349-675, looked up)
chain: T4 sequence (looked up) with A93Y
notes: COP1 (CONSTITUTIVELY PHOTOMORPHOGENIC 1) E3 ubiquitin ligase, Arabidopsis, WD40 domain, residues 349-675; also called COP1 WD40 domain; COP1 WD40; not shown: His10, N-terminal, cleaved; Twin-Strep, N-terminal, cleaved
B2: HY5^39–48 VP peptide (peptide, UniProt O24646 39-48, looked up)
peptide: EIRRVPEFGG
notes: ELONGATED HYPOCOTYL 5 (HY5) bZIP transcription factor, residues 39-48 (holds Arg41, Glu45); also called HY5 VP peptide; HY5 peptide; source: synthetic peptide (Peptide Specialty Labs GmbH)

Assays:
Conditions in all cases: both partners purified
[1] = target: T1, UVR8^ValPro/AlaAla (recombinant); assay: SEC; analytical SEC, Superdex 200 Increase 10/300 GL; ~4 μM of each protein mixed; UVR8 form pre-monomerized by UV-B; 150 mM NaCl, 20 mM HEPES 7.4, 2 mM BME; fractions on Coomassie-stained SDS-PAGE
[2] = target: T2, UVR8^12–381 β‐propeller core; assay: not stated; UV-B-activated UVR8 forms versus COP1 WD40 and its mutants; Appendix Figs S4B, S4C, S6A, S6B, not shown (ITC or GCI)
[3] = target: T3, full‐length UVR8 (recombinant); assay: not stated; non-photoactivated (ground-state) full-length UVR8 versus COP1 WD40; Appendix Fig S4A, not shown (ITC or GCI)
[4] = target: T4, COP1^Tyr441Ala WD40 domain; assay: ITC; VP peptide (titrant, 500-3,000 μM) injected into COP1 WD40 in the cell at about 10-fold lower concentration; 150 mM NaCl, 20 mM HEPES 7.4, 2 mM BME; 25°C; one-site binding model
[5] = target: B1; assay: as above
[6] = target: T5, COP1^349–675,Lys422Ala WD40 domain; assay: as above

binding result [1] | Kd [2] | Kd [3] | stoichiometry N [4] | Kd [5] | fold stronger binding than UVR8^406–413 [5] | stoichiometry N [6] | Binder
binds | ~500 nM | ~1000 nM | – | – | – | – | B1
– | – | – | 0.92 | ~20 µM | ~8 fold | 0.83 | B2
